Measured values from IntAct's records for PubMed 25910212.

B1: EF-hand domain-containing protein 1 (Homo sapiens), Q5JVL4 (parent)
chain: MVSNPVHGLPFLPGTSFKDSTKTAFHRSQTLSYRNGYAIVRRPTVGIGGDRLQFNQLSQAELDELASKAPVLTYGQPKQAPPADFIPAHVAFDKKVLKFDAYFQEDVPMSTEEQYRIRQVNIYYYLEDDSMSVIEPVVENSGILQGKLIKRQRLAKNDRGDHYHWKDLNRGINITIYGKTFRVVDCDQFTQVFLESQGIELNPPEKMALDPYTELRKQPLRKYVTPSDFDQLKQFLTFDKQVLRFYAIWDDTDSMYGECRTYIIHYYLMDDTVEIREVHERNDGRDPFPLLMNRQRVPKVLVENAKNFPQCVLEISDQEVLEWYTAKDFIVGKSLTILGRTFFIYDCDPFTRRYYKEKFGITDLPRIDVSKREPPPVKQELPPYNGFGLVEDSAQNCFALIPKAPKKDVIKMLVNDNKVLRYLAVLESPIPEDKDRRFVFSYFLATDMISIFEPPVRNSGIIGGKYLGRTKVVKPYSTVDNPVYYGPSDFFIGAVIEVFGHRFIILDTDEYVLKYMESNAAQYSPEALASIQNHVRKREAPAPEAESKQTEKDPGVQELEALIDTIQKQLKDHSCKDNIREAFQIYDKEASGYVDRDMFFKICESLNVPVDDSLVKELIRMCSHGEGKINYYNFVRAFSN
partner: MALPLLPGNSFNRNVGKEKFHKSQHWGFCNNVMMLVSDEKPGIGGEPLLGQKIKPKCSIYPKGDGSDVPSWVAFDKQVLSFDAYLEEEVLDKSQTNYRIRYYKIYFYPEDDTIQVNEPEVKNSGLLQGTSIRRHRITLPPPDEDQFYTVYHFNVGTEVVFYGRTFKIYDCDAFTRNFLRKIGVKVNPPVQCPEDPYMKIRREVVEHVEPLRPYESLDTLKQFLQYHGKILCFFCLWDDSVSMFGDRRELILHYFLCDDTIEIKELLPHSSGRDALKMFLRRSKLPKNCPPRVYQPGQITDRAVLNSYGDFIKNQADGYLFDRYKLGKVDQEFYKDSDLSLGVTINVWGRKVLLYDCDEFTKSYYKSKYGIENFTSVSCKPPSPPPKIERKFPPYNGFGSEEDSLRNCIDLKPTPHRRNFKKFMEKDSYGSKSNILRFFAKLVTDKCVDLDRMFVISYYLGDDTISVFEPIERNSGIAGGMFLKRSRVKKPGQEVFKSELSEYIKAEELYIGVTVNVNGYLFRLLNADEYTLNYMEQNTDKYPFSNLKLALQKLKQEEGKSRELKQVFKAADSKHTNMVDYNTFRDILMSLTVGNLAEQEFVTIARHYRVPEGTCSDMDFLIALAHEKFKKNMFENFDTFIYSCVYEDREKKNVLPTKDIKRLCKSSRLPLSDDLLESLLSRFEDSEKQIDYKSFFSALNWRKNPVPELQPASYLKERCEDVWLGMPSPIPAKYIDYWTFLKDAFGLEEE
B2: Glycogen phosphorylase, liver form (Homo sapiens), P06737 (parent)
chain: MAKPLTDQEKRRQISIRGIVGVENVAELKKSFNRHLHFTLVKDRNVATTRDYYFALAHTVRDHLVGRWIRTQQHYYDKCPKRVYYLSLEFYMGRTLQNTMINLGLQNACDEAIYQLGLDIEELEEIEEDAGLGNGGLGRLAACFLDSMATLGLAAYGYGIRYEYGIFNQKIRDGWQVEEADDWLRYGNPWEKSRPEFMLPVHFYGKVEHTNTGTKWIDTQVVLALPYDTPVPGYMNNTVNTMRLWSARAPNDFNLRDFNVGDYIQAVLDRNLAENISRVLYPNDNFFEGKELRLKQEYFVVAATLQDIIRRFKASKFGSTRGAGTVFDAFPDQVAIQLNDTHPALAIPELMRIFVDIEKLPWSKAWELTQKTFAYTNHTVLPEALERWPVDLVEKLLPRHLEIIYEINQKHLDRIVALFPKDVDRLRRMSLIEEEGSKRINMAHLCIVGSHAVNGVAKIHSDIVKTKVFKDFSELEPDKFQNKTNGITPRRWLLLCNPGLAELIAEKIGEDYVKDLSQLTKLHSFLGDDVFLRELAKVKQENKLKFSQFLETEYKVKINPSSMFDVQVKRIHEYKRQLLNCLHVITMYNRIKKDPKKLFVPRTVIIGGKAAPGYHMAKMIIKLITSVADVVNNDPMVGSKLKVIFLENYRVSLAEKVIPATDLSEQISTAGTEASGTGNMKFMLNGALTIGTMDGANVEMAEEAGEENLFIFGMRIDDVAALDKKGYEAKEYYEALPELKLVIDQIDNGFFSPKQPDLFKDIINMLFYHDRFKVFADYEAYVKCQDKVSQLYMNPKAWNTMVLKNIAASGKFSSDRTIKEYAQNIWNVEPSDLKISLSNESNKVNGN
partner: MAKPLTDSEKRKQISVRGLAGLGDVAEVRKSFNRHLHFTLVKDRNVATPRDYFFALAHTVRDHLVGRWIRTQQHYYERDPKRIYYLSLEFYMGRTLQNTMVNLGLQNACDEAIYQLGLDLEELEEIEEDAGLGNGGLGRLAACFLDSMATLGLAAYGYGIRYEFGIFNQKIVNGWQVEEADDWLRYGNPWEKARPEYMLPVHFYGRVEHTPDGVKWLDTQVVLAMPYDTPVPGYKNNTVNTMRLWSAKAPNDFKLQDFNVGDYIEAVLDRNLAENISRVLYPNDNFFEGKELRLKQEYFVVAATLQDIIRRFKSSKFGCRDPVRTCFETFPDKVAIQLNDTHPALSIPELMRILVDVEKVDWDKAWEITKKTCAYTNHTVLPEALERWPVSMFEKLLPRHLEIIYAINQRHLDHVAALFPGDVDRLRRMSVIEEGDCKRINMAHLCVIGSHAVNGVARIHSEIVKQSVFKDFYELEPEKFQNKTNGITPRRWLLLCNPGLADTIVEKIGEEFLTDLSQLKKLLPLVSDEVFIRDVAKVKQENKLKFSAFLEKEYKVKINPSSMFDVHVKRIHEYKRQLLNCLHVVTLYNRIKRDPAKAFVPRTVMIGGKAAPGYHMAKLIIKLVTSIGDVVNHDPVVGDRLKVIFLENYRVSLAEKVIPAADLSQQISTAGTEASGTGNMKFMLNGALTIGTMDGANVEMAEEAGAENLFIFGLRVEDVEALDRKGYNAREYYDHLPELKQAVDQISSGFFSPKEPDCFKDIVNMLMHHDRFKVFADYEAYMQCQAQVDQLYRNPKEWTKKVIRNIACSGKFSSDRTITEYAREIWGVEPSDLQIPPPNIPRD
B3: Synaptogyrin-1 (Homo sapiens), O43759-2 (parent)
chain: MEGGAYGAGKAGGAFDPYTLVRQPHTILRVVSWLFSIVVFGSIVNEGYLNSASEGEEFCIYNRNPNACSYGVAVGVLAFLTCLLYLALDVYFPQISSVKDRKKAVLSDIGVSAFWAFLWFVGFCYLANQWQVSKPKDNPLNEGTDAARAAIAFSFFSIFTWSLTAALAVRRFKDLSFQEEYSTLFPASAQP
partner: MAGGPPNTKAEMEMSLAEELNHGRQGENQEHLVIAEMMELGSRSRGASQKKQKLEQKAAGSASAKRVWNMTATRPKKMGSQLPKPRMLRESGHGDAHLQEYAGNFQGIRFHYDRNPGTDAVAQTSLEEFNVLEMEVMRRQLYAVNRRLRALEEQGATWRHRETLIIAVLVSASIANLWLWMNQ
B4: Serotonin N-acetyltransferase (Homo sapiens), Q16613 (parent)
chain: MSTQSTHPLKPEAPRLPPGIPESPSCQRRHTLPASEFRCLTPEDAVSAFEIEREAFISVLGVCPLYLDEIRHFLTLCPELSLGWFEEGCLVAFIIGSLWDKERLMQESLTLHRSGGHIAHLHVLAVHRAFRQQGRGPILLWRYLHHLGSQPAVRRAALMCEDALVPFYERFSFHAVGPCAITVGSLTFMELHCSLRGHPFLRRNSGC
B5: U4/U6 small nuclear ribonucleoprotein Prp31 (Homo sapiens), Q8WWY3 (parent)
chain: MSLADELLADLEEAAEEEEGGSYGEEEEEPAIEDVQEETQLDLSGDSVKTIAKLWDSKMFAEIMMKIEEYISKQAKASEVMGPVEAAPEYRVIVDANNLTVEIENELNIIHKFIRDKYSKRFPELESLVPNALDYIRTVKELGNSLDKCKNNENLQQILTNATIMVVSVTASTTQGQQLSEEELERLEEACDMALELNASKHRIYEYVESRMSFIAPNLSIIIGASTAAKIMGVAGGLTNLSKMPACNIMLLGAQRKTLSGFSSTSVLPHTGYIYHSDIVQSLPPDLRRKAARLVAAKCTLAARVDSFHESTEGKVGYELKDEIERKFDKWQEPPPVKQVKPLPAPLDGQRKKRGGRRYRKMKERLGLTEIRKQANRMSFGEIEEDAYQEDLGFSLGHLGKSGSGRVRQTQVNEATKARISKTLQRTLQKQSVVYGGKSTIRDRSSGTASSVAFTPLQGLEIVNPQAAEKKVAEANQKYFSSMAEFLKVKGEKSGLMST
partner: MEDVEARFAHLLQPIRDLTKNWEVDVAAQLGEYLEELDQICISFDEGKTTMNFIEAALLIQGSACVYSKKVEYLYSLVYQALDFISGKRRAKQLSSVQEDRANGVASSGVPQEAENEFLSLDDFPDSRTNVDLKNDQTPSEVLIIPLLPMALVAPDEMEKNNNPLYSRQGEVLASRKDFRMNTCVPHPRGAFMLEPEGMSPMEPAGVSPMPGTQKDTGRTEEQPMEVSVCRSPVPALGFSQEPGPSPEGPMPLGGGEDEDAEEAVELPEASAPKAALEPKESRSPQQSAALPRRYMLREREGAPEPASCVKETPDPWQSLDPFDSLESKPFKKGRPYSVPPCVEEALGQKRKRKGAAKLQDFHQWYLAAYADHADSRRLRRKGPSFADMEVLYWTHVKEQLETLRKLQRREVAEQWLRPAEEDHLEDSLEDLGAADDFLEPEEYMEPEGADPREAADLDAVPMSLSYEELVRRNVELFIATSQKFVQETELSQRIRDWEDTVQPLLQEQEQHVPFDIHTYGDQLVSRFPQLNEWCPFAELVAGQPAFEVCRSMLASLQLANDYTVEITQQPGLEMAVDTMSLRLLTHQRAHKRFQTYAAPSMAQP
B6: Carbonic anhydrase-related protein (Homo sapiens), P35219 (parent)
chain: MADLSFIEDTVAFPEKEEDEEEEEEGVEWGYEEGVEWGLVFPDANGEYQSPINLNSREARYDPSLLDVRLSPNYVVCRDCEVTNDGHTIQVILKSKSVLSGGPLPQGHEFELYEVRFHWGRENQRGSEHTVNFKAFPMELHLIHWNSTLFGSIDEAVGKPHGIAIIALFVQIGKEHVGLKAVTEILQDIQYKGKSKTIPCFNPNTLLPDPLLRDYWVYEGSLTIPPCSEGVTWILFRYPLTISQLQIEEFRRLRTHVKGAELVEGCDGILGDNFRPTQPLSDRVIRAAFQ
B7: N-chimaerin (Homo sapiens), P15882 (parent)
chain: MALTLFDTDEYRPPVWKSYLYQLQQEAPHPRRITCTCEVENRPKYYGREFHGMISREAADQLLIVAEGSYLIRESQRQPGTYTLALRFGSQTRNFRLYYDGKHFVGEKRFESIHDLVTDGLITLYIETKAAEYIAKMTINPIYEHVGYTTLNREPAYKKHMPVLKETHDERDSTGQDGVSEKRLTSLVRRATLKENEQIPKYEKIHNFKVHTFRGPHWCEYCANFMWGLIAQGVKCADCGLNVHKQCSKMVPNDCKPDLKHVKKVYSCDLTTLVKAHTTKRPMVVDMCIREIESRGLNSEGLYRVSGFSDLIEDVKMAFDRDGEKADISVNMYEDINIITGALKLYFRDLPIPLITYDAYPKFIESAKIMDPDEQLETLHEALKLLPPAHCETLRYLMAHLKRVTLHEKENLMNAENLGIVFGPTLMRSPELDAMAALNDIRYQRLVVELLIKNEDILF

Variants of: B1
Settings: with efhc2_human EFHC2, Q5JST6

**Q.** With P77T as the variant, how does the “effect of a mutation on the interaction” value read?
**A.** disrupting interaction strength

Variants of: B2
Settings: with pygb_human PYGB

**Q.** For N377K, which “effect of a mutation on the interaction” value is on record?
**A.** with no effect

**Q.** With N339S as the variant, how does the “effect of a mutation on the interaction” value read?
**A.** with no effect

Variants of: B3
Settings: with fate1_human FATE1, Q969F0

**Q.** How did the “effect of a mutation on the interaction” value turn out when K99E was run?
**A.** disrupting interaction strength

Variants of: B4
Settings: with bhe40_human BHLHE40, O14503
Chain of bhe40_human BHLHE40, O14503 (O14503 whole entry): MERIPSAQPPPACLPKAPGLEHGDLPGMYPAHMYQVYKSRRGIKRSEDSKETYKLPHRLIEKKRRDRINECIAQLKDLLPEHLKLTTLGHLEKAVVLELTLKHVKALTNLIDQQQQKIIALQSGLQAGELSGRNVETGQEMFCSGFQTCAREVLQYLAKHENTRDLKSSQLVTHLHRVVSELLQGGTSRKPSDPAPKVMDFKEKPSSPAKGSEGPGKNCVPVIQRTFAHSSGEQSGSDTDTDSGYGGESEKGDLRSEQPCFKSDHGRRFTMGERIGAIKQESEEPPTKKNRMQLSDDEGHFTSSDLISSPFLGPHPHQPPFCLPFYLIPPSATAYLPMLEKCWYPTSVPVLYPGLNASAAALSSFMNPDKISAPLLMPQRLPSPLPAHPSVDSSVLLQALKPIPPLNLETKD

**Q.** How did the “effect of a mutation on the interaction” value turn out when T3M was run?
**A.** with no effect

**Q.** With A129T as the variant, how does the “effect of a mutation on the interaction” value read?
**A.** disrupting interaction strength

Variants of: B4
Settings: with mdfi_human MDFI

**Q.** T3M was tested. Which “effect of a mutation on the interaction” value did it give?
**A.** with no effect

**Q.** Which “effect of a mutation on the interaction” value does the source give for A129T here?
**A.** with no effect

Variants of: B5
Settings: with cndh2_human NCAPH2, Q6IBW4

**Q.** With L107V as the variant, how does the “effect of a mutation on the interaction” value read?
**A.** with no effect

Variants of: B6
Settings: with int7_human INTS7, Q9NVH2
Chain of int7_human INTS7, Q9NVH2 (Q9NVH2 whole entry): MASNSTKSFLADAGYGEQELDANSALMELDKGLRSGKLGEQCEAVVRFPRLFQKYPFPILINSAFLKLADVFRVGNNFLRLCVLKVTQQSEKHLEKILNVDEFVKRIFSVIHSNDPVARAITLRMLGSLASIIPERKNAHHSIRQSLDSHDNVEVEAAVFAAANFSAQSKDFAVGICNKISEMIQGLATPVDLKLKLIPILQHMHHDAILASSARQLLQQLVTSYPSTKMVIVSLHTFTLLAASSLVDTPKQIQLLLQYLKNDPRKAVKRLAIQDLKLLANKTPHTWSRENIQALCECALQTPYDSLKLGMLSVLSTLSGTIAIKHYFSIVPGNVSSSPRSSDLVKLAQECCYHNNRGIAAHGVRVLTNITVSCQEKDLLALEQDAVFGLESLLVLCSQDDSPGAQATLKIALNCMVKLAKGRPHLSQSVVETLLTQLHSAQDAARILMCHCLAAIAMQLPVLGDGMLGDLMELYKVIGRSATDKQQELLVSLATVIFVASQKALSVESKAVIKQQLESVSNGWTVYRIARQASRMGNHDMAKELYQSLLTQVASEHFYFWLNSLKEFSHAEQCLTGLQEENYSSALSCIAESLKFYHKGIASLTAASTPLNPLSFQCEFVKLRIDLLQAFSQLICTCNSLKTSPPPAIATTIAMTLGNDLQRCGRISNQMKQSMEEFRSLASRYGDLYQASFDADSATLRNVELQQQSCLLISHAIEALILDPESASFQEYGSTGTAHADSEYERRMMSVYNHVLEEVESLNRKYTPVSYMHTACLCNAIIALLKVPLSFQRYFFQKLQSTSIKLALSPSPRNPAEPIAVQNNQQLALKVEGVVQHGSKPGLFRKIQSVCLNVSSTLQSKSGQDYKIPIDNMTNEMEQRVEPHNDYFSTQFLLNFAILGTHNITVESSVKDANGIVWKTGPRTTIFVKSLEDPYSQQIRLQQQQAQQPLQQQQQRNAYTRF

**Q.** Which “effect of a mutation on the interaction” value does the source give for S100P here?
**A.** disrupting interaction strength

Variants of: B6
Settings: with crx_human CRX

**Q.** Which “effect of a mutation on the interaction” value does the source give for S100P here?
**A.** disrupting interaction strength

Variants of: B7
Settings: with nck2_human NCK2, O43639
Chain of nck2_human NCK2, O43639 (O43639 whole entry): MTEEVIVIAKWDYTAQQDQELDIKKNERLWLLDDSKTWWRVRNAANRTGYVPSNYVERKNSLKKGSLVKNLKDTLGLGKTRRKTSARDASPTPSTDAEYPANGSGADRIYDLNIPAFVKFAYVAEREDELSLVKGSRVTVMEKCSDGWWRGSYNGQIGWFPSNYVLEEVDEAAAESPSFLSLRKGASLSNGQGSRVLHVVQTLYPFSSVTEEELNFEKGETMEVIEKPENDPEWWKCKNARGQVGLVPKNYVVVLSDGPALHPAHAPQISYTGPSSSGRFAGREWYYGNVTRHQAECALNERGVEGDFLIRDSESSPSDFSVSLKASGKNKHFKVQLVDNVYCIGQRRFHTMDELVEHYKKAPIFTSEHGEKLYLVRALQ

**Q.** How did the “effect of a mutation on the interaction” value turn out when L20F was run?
**A.** with no effect
